Numbered stars: 1 amine (or outer) side, 2 acyl side, 3 side chain; on linkers, the order of the positions; unused ones are H or OH. Bridge positions count the residues as written; N and C are the ends. Side chains are listed from the residue outwards. Ends that are not written are not given here. * marks the point of attachment. C20 diacid = O=C(O)CCCCCCCCCCCCCCCCCCC(=O)*; γGlu = O=C(O)[C@H](CCC(=O)[*:2])N[*:1]; AEEA = NCCOCCOCC(=O)O
T1: human calcitonin receptor (human, UniProt P30988 25-474)
T1 construct: whole, on cells; Used as cell membranes; also called hCTR; hCT
T1 sequence (looked up): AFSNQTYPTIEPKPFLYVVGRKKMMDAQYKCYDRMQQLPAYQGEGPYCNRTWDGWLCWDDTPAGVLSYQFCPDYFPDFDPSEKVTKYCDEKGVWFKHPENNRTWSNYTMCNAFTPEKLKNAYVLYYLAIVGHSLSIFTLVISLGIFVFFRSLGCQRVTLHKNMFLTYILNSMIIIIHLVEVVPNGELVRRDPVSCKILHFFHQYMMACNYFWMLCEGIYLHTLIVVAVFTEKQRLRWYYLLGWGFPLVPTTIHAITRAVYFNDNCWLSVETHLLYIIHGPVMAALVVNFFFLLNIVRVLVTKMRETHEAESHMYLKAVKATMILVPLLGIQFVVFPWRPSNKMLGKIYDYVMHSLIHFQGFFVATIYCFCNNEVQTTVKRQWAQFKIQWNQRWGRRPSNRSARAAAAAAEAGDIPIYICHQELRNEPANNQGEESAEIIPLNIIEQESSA

B1: N^ε1-[2-[2-[2-[[(4S)-4-carboxy-4-(19-carboxynonadecanoylamino)butanoyl]amino]ethoxy]ethoxy]acetyl]-[Arg17,Pro21,Pro27,His34]-h-amylin (peptide)
peptide: K([AEEA-γGlu-C20 diacid])CNTATCATQRLANFLRHSSPNFGAIPSSTNVGHNTY-NH2
modifications: disulfide 2-7; N-terminus assumed
SMILES: CC[C@H](C)[C@H](NC(=O)[C@H](C)NC(=O)CNC(=O)[C@H](Cc1ccccc1)NC(=O)[C@H](CC(N)=O)NC(=O)[C@@H]1CCCN1C(=O)[C@H](CO)NC(=O)[C@H](CO)NC(=O)[C@H](Cc1c[nH]cn1)NC(=O)[C@H](CCCNC(=N)N)NC(=O)[C@H](CC(C)C)NC(=O)[C@H](Cc1ccccc1)NC(=O)[C@H](CC(N)=O)NC(=O)[C@H](C)NC(=O)[C@H](CC(C)C)NC(=O)[C@H](CCCNC(=N)N)NC(=O)[C@H](CCC(N)=O)NC(=O)[C@@H](NC(=O)[C@H](C)NC(=O)[C@@H]1CSSC[C@H](NC(=O)[C@@H](N)CCCCNC(=O)COCCOCCNC(=O)CC[C@H](NC(=O)CCCCCCCCCCCCCCCCCCC(=O)O)C(=O)O)C(=O)N[C@@H](CC(N)=O)C(=O)N[C@@H]([C@@H](C)O)C(=O)N[C@@H](C)C(=O)N[C@@H]([C@@H](C)O)C(=O)N1)[C@@H](C)O)C(=O)N1CCC[C@H]1C(=O)N[C@@H](CO)C(=O)N[C@@H](CO)C(=O)N[C@H](C(=O)N[C@@H](CC(N)=O)C(=O)N[C@H](C(=O)NCC(=O)N[C@@H](Cc1c[nH]cn1)C(=O)N[C@@H](CC(N)=O)C(=O)N[C@H](C(=O)N[C@@H](Cc1ccc(O)cc1)C(N)=O)[C@@H](C)O)C(C)C)[C@@H](C)O
notes: also called compound 76
B2: N^ε1-[2-[2-[2-(19-carboxynonadecanoylamino)ethoxy]ethoxy]acetyl]-[His14,Arg17,Pro21,Pro27]-h-amylin (peptide)
peptide: K([AEEA-C20 diacid])CNTATCATQRLAHFLRHSSPNFGAIPSSTNVGSNTY-NH2
modifications: disulfide 2-7; N-terminus assumed
SMILES: CC[C@H](C)[C@H](NC(=O)[C@H](C)NC(=O)CNC(=O)[C@H](Cc1ccccc1)NC(=O)[C@H](CC(N)=O)NC(=O)[C@@H]1CCCN1C(=O)[C@H](CO)NC(=O)[C@H](CO)NC(=O)[C@H](Cc1c[nH]cn1)NC(=O)[C@H](CCCNC(=N)N)NC(=O)[C@H](CC(C)C)NC(=O)[C@H](Cc1ccccc1)NC(=O)[C@H](Cc1c[nH]cn1)NC(=O)[C@H](C)NC(=O)[C@H](CC(C)C)NC(=O)[C@H](CCCNC(=N)N)NC(=O)[C@H](CCC(N)=O)NC(=O)[C@@H](NC(=O)[C@H](C)NC(=O)[C@@H]1CSSC[C@H](NC(=O)[C@@H](N)CCCCNC(=O)COCCOCCNC(=O)CCCCCCCCCCCCCCCCCCC(=O)O)C(=O)N[C@@H](CC(N)=O)C(=O)N[C@@H]([C@@H](C)O)C(=O)N[C@@H](C)C(=O)N[C@@H]([C@@H](C)O)C(=O)N1)[C@@H](C)O)C(=O)N1CCC[C@H]1C(=O)N[C@@H](CO)C(=O)N[C@@H](CO)C(=O)N[C@H](C(=O)N[C@@H](CC(N)=O)C(=O)N[C@H](C(=O)NCC(=O)N[C@@H](CO)C(=O)N[C@@H](CC(N)=O)C(=O)N[C@H](C(=O)N[C@@H](Cc1ccc(O)cc1)C(N)=O)[C@@H](C)O)C(C)C)[C@@H](C)O
notes: also called compound 90
B3: N^ε1-[2-[2-[2-[[2-[2-[2-[[(4S)-4-carboxy-4-(19-carboxynonadecanoylamino)butanoyl]amino]ethoxy]ethoxy]acetyl]amino]ethoxy]ethoxy]acetyl]-[Arg17,Pro21,Pro27,Pro34 … (peptide)
peptide: K([AEEA-AEEA-γGlu-C20 diacid])CNTATCATQRLANFLRHSSPNFGAIPSSTNVGPNTY-NH2
modifications: disulfide 2-7; N-terminus assumed
SMILES: CC[C@H](C)[C@H](NC(=O)[C@H](C)NC(=O)CNC(=O)[C@H](Cc1ccccc1)NC(=O)[C@H](CC(N)=O)NC(=O)[C@@H]1CCCN1C(=O)[C@H](CO)NC(=O)[C@H](CO)NC(=O)[C@H](Cc1c[nH]cn1)NC(=O)[C@H](CCCNC(=N)N)NC(=O)[C@H](CC(C)C)NC(=O)[C@H](Cc1ccccc1)NC(=O)[C@H](CC(N)=O)NC(=O)[C@H](C)NC(=O)[C@H](CC(C)C)NC(=O)[C@H](CCCNC(=N)N)NC(=O)[C@H](CCC(N)=O)NC(=O)[C@@H](NC(=O)[C@H](C)NC(=O)[C@@H]1CSSC[C@H](NC(=O)[C@@H](N)CCCCNC(=O)COCCOCCNC(=O)COCCOCCNC(=O)CC[C@H](NC(=O)CCCCCCCCCCCCCCCCCCC(=O)O)C(=O)O)C(=O)N[C@@H](CC(N)=O)C(=O)N[C@@H]([C@@H](C)O)C(=O)N[C@@H](C)C(=O)N[C@@H]([C@@H](C)O)C(=O)N1)[C@@H](C)O)C(=O)N1CCC[C@H]1C(=O)N[C@@H](CO)C(=O)N[C@@H](CO)C(=O)N[C@H](C(=O)N[C@@H](CC(N)=O)C(=O)N[C@H](C(=O)NCC(=O)N1CCC[C@H]1C(=O)N[C@@H](CC(N)=O)C(=O)N[C@H](C(=O)N[C@@H](Cc1ccc(O)cc1)C(N)=O)[C@@H](C)O)C(C)C)[C@@H](C)O
notes: also called compound 98
B4: N^ε1-[2-[2-[2-[[2-[2-[2-[[(4S)-4-carboxy-4-(19-carboxynonadecanoylamino)butanoyl]amino]ethoxy]ethoxy]acetyl]amino]ethoxy]ethoxy]acetyl]-[Arg17,Pro21,Pro27,Pro31 … (peptide)
peptide: K([AEEA-AEEA-γGlu-C20 diacid])CNTATCATQRLANFLRHSSPNFGAIPSSTPVGSNTY-NH2
modifications: disulfide 2-7; N-terminus assumed
SMILES: CC[C@H](C)[C@H](NC(=O)[C@H](C)NC(=O)CNC(=O)[C@H](Cc1ccccc1)NC(=O)[C@H](CC(N)=O)NC(=O)[C@@H]1CCCN1C(=O)[C@H](CO)NC(=O)[C@H](CO)NC(=O)[C@H](Cc1c[nH]cn1)NC(=O)[C@H](CCCNC(=N)N)NC(=O)[C@H](CC(C)C)NC(=O)[C@H](Cc1ccccc1)NC(=O)[C@H](CC(N)=O)NC(=O)[C@H](C)NC(=O)[C@H](CC(C)C)NC(=O)[C@H](CCCNC(=N)N)NC(=O)[C@H](CCC(N)=O)NC(=O)[C@@H](NC(=O)[C@H](C)NC(=O)[C@@H]1CSSC[C@H](NC(=O)[C@@H](N)CCCCNC(=O)COCCOCCNC(=O)COCCOCCNC(=O)CC[C@H](NC(=O)CCCCCCCCCCCCCCCCCCC(=O)O)C(=O)O)C(=O)N[C@@H](CC(N)=O)C(=O)N[C@@H]([C@@H](C)O)C(=O)N[C@@H](C)C(=O)N[C@@H]([C@@H](C)O)C(=O)N1)[C@@H](C)O)C(=O)N1CCC[C@H]1C(=O)N[C@@H](CO)C(=O)N[C@@H](CO)C(=O)N[C@H](C(=O)N1CCC[C@H]1C(=O)N[C@H](C(=O)NCC(=O)N[C@@H](CO)C(=O)N[C@@H](CC(N)=O)C(=O)N[C@H](C(=O)N[C@@H](Cc1ccc(O)cc1)C(N)=O)[C@@H](C)O)C(C)C)[C@@H](C)O
notes: also called compound 96

Molecular target: T1, human calcitonin receptor
Assay: ratio of hCTR IC50 to hAmylin-R IC50 (reference: human amylin receptor)
Protocol: The resulting pellet was resuspended, homogenized and centrifuged (20.000 rpm, 15 min) in a buffer containing 20 mM Na-HEPES and 0.1 mM EDTA (pH 7.4, buffer 2). The resulting pellet was resuspended in buffer 2 and protein concentration was measured (BCA protein Assay, Pierce). The homogenate was kept cold during the whole procedure. The membranes were kept at −80° C. until use. The assay was performed in a 384 well Optiplate (PerkinElmer) in a total volume of 40 ul. Membranes were mixed with SPA beads. Final concentration of membranes 35 ng/μL final and SPA beads was 0.05 mg/well. Test-compounds were dissolved in DMSO and further diluted in assay buffer (50 mM Hepes, pH 7.4, 1 mM CaCl2, 5 mM MgCl₂, 0.1% OA and 0.02% Tween20). […] The final mixture was incubated with shaking at 400 rpm for 120 min at 25° C. prior to centrifugation (1500 rpm, 10 min). Samples were analyzed on TopCounter™ (Packard). The IC₅₀ was calculated using (one site binding competition analysis) GraphPad Prism5 as a measure of receptor affinity.
Membranes were prepared in the following way; the cells were rinsed with PBS and incubated with Versene for approximately 5 min before harvesting. The cells were flushed with PBS and the cell-suspension was centrifuged for 5 min at 1000 rpm. Cells were homogenized (Ultrathurrax) in a buffer containing 20 mM Na-HEPES and 10 mM EDTA (pH 7.4) and centrifuged at 20.000 rpm for 15 min. The resulting pellet was resuspended, homogenized and centrifuged (20.000 rpm, 15 min) in a buffer containing 20 mM Na-HEPES and 0.1 mM EDTA (pH 7.4, buffer 2). The resulting pellet was resuspended in buffer 2 and protein concentration was measured (BCA protein Assay, Pierce). The homogenate was kept cold during the whole procedure. The membranes were kept at −80° C. until use. Assay was performed in a 384 well Optiplate (PerkinElmer) in a total volume of 40 ul. Membranes were mixed with SPA beads.

Binder	Ratio hCT/hAmylin binding
B1	80
B2	42.2
B3	74.1
B4	79.6

Molecular target: T1, human calcitonin receptor
Assay: SPA competition on BHK cell membranes, 125I-calcitonin as radioligand (Assay VII)
Protocol: Membranes were prepared in the following way; the cells were rinsed with PBS and incubated with Versene for approximately 5 min before harvesting. The cells were flushed with PBS and the cell-suspension was centrifuged for 5 min at 1000 rpm. Cells were homogenized (Ultrathurrax) in a buffer containing 20 mM Na-HEPES and 10 mM EDTA (pH 7.4) and centrifuged at 20.000 rpm for 15 min. The resulting pellet was resuspended, homogenized and centrifuged (20.000 rpm, 15 min) in a buffer containing 20 mM Na-HEPES and 0.1 mM EDTA (pH 7.4, buffer 2). The resulting pellet was resuspended in buffer 2 and protein concentration was measured (BCA protein Assay, Pierce). The homogenate was kept cold during the whole procedure. The membranes were kept at −80° C. until use. Assay was performed in a 384 well Optiplate (PerkinElmer) in a total volume of 40 ul. Membranes were mixed with SPA beads. Final concentration of membranes 35 ng/μL final and Final concentration of SPA beads was 0.05 mg/well. Test-compounds were dissolved in DMSO and further diluted in assay buffer (50 mM Hepes, pH 7.4, 1 mM CaCl2, 5 mM MgCl₂, 0.1% OA and 0.02% Tween20). […] The final mixture was incubated for 120 min with shaking at 400 rpm at 25° C. prior to centrifugation (1500 rpm, 10 min). Samples were analyzed on TopCounter™ (Packard). The […] was calculated using (one site binding competition analysis) GraphPad Prism5 as a measure of receptor affinity.

Binder	IC50 [nM]
B1	17.2
B2	2.57
B3	6.74
B4	13.2

— US20140087995A1 (published 2014)
